Experimental findings from patent publication US7109167 are described below.

No end group written: not given here.

Assay [1] has as its target endothelial cell receptor for TKPPR on human aortic endothelial cells (HAEC). The experiment in a line: 5% BRU-114 bubbles on HAEC, static, cells pretreated 4 h with 0 ng/mL TNFα.
Assay [2] shares this target. The experiment in a line: 5% BRU-114 bubbles on HAEC, static, no competitor.
The target is the same in assay [3]. Kind of assay: microbubbles on HAEC, static, manual count, 5% against 1% BRU-114.
The target of assay [4] is KB cells (human epidermoid carcinoma cell line), cell surface. The experiment in a line: 5% BRU-114 bubbles on KB cells, static.
Assay [5] addresses receptor for TKPPR on rabbit aortic endothelial cells (RAEC). Kind of assay: 5% BRU-114 bubbles on RAEC, static, no competitor.
For assay [6], the target named is endothelial cell receptor for TKPPR on human aortic endothelial cells (HAEC). Kind of assay: 10% BRU-114 bubbles on HAEC, static, no competitor.
For assay [7] the target is unchanged. Kind of assay: microbubbles with 5% BRU-114 on HAEC, static, no competitor.
The target is the same in assay [8]. The experiment in a line: 5% BRU-114 bubbles on HAEC, static, cells pretreated 4 h with 1 ng/mL TNFα.
Assay [9] has the same target. The experiment in a line: microbubbles with 5% BRU-114 on HAEC, static inverted culture.
The target is the same in assay [10]. Kind of assay: microbubbles with 1% BRU-114 on HAEC, static, no competitor.
Assay [11] shares this target. The experiment in a line: 1% BRU-114 bubbles on HAEC, static, no competitor, average of duplicates.
Assay [12] has the same target. The experiment in a line: 5% BRU-114 bubbles on HAEC, static, no competitor (same control as the 20th table).
The target is the same in assay [13]. The experiment in a line: 2% BRU-114 bubbles on HAEC, static, no competitor.
Assay [14] has the same target. The experiment in a line: 5% BRU-114 bubbles on HAEC, static, no competitor (control).
Assay [15] has the same target. The experiment in a line: 5% BRU-114 bubbles on HAEC, static.
Assay [16] has the same target. The experiment in a line: 5% BRU-114 bubbles on HAEC, static, cells pretreated 4 h with 5 ng/mL TNFα.
Assay [17] has the same target. The experiment in a line: 5% BRU-114 bubbles on HAEC, static, cells pretreated 4 h with 10 ng/mL TNFα.
For assay [18] the target is unchanged. The experiment in a line: 1% BRU-114 bubbles on HAEC, static, no competitor.
For assay [19] the target is unchanged. The experiment in a line: 2% BRU-114 bubbles on HAEC, static, no competitor, average of duplicates.

B1: DPPE-Glu-GTKPPR (BRU-114) in gas-filled microbubbles (peptide)
peptide: GTKPPR-OH
modifications: not fully specified (N-terminus); also: built into phospholipid gas-filled microbubbles
For B1, the TKPPR-Bubbles bound in [1] amounted to 950 bubbles; in assay [8], 1520 bubbles; in assay [16] it was 1360 bubbles; in [17], 1020 bubbles. Besides, in assay [2], the Bubbles Bound-5% came to 2780 bubbles. This molecule also yielded an HAEC bubbles bound in assay [2] of 1420 bubbles. The % more bubbles bound than with the 1% composition in [3] was 31%. In assay [4], this molecule returned a KB cell bubble binding of 56 bubbles. In [5], the RAEC bubbles bound came out at 751 bubbles. Also, the Bubbles Bound-10% in assay [6] was found to be 1860 bubbles. The bubbles bound, no competition in assay [7] is 726 bubbles; in assay [10], 555 bubbles. Also, the Bubbles Bound is 7050 bubbles in [9]; 737 bubbles in assay [11]; 1250 bubbles in assay [12]; 1250 bubbles in assay [14]; 953 bubbles in [19]. The Bubbles Bound % in assay [13] was 100 % of control. Further, the HAEC bubble binding in [15] came out at 1120 bubbles. The molecule also returned a Bubbles Bound-1% in assay [18] of 1640 bubbles.
